# Measurements: the RNAGym collection of RNA variant scans (doi:10.7554/elife.80360)
# B1: HDV Ribozyme (parent)
# chain: GGCCGGCAUGGUCCCAGCCUCCUCGCUGGCGCCGGCUGGGCAACAUUCCGAGGGGACCGUCCCCUCGGUAAUGGCGAAUGGGACCCA
# Variants of: B1
# Assay: self-cleavage, relative activity (ratio to wild type); higher = more cleavage; co-transcriptional
row,Variant,self-cleavage
1,C22A A56C,0.312
2,C22A A56G,0.415
3,C21G G31U,0
4,C21G G31C,0.147
5,U23A C86A,1.21
6,C22A C61U,0.237
7,C21U G31U,0.173
8,C22U A83C,0.298
9,C21G C61U,0.032
10,C22U A43U,0.0831
11,C21U U23A,0.173
12,U23A U27C,0.575
13,U23A C85U,0.98
14,U23A C57U,0.812
15,U23A C57G,1.06
16,U23A C57A,1.09
17,C21A U79G,0.0396
18,C21G A87C,0.0594
19,C21G A87G,0.0462
20,C21G A87U,0.0723
21,U23A C61G,1.08
22,U23A C61A,1.03
23,U23A G39C,0.204
24,C21G C24G,0.0504

row,Variant,self-cleavage
1,C22A G54A,0.197
2,C22G C62U,0.0346
3,U23A A78C,0.219
4,C21G U65A,0.0536
5,C22A A70U,0.222
6,C22U C44A,0.0898
7,C21G A71U,0
8,C22A C41G,0.175
9,C22U A71C,0.623
10,C22U G53C,0.63
11,C21G A43U,0
12,C21G A43G,0.128
13,C21G A43C,0
14,C22G C61A,0.145
15,U23A C62G,0.776
16,C22G C49U,0.0639
17,C21U C62U,0.317
18,C21G U72G,0.0462
19,C22G A56G,0.0875
20,C22U G50C,0.671
21,U23A A77C,0.332
22,U23A A77U,0.567
23,C21U C64U,0.17
24,C22U C66U,0.604

row,Variant,self-cleavage
1,C22U C66G,0.814
2,U23C C57A,0.849
3,U23A G76C,1.1
4,C22A A51G,0.457
5,C22A U27A,0.0573
6,C22A U27C,0.317
7,C21G U69A,0.0426
8,U23A G74U,0.348
9,C21U C36U,0.218
10,C22G G28U,0.0739
11,C22G G28A,0.0462
12,C21U U72C,0.284
13,C21G U27G,0
14,C22A C49A,0.128
15,C21U G76A,0.271
16,C22G C48U,0.0594
17,C22U A78C,0.126
18,C22U A78G,0.314
19,C22U C75G,0.208
20,C22U U27C,0.312
21,C22U U27A,0.227
22,U23A A83C,0.508
23,C21G C41U,0.0941
24,C22A G80A,0.0479

row,Variant,self-cleavage
1,C22U G39C,0.115
2,C22U G39U,0.163
3,C21A U65A,0.0405
4,C21U C85G,0.358
5,U23A G55U,0.976
6,C22G C36U,0.108
7,C22A U72A,0.0665
8,C22A U72G,0.332
9,C22G U69C,0.0755
10,C22G U69A,0.095
11,C22U C33U,0.533
12,C22A A87G,0.33
13,U23A A42C,0.253
14,C22U C63G,0.782
15,C22A A43G,0.151
16,U23A G73U,0.464
17,C21A U27G,0.0639
18,U23C C30U,0.755
19,U23C C30G,0.0437
20,C22U A51C,0.928
21,C22U A42G,0.0755
22,U23C G53U,0.938
23,C22G G82C,0.0378
24,C21G C86U,0.0791

row,Variant,self-cleavage
1,C21U A87U,0.368
2,C21U G67U,0.174
3,C22G C24G,0.0339
4,C22G C24A,0.0396
5,C21U G29U,0.0504
6,C22G U47G,0.0791
7,C21U C30A,0.153
8,C22A G39U,0.166
9,C22A G39A,0.0528
10,C22A G39C,0.0437
11,C21A G81A,0.0647
12,C22A A78G,0.0369
13,C22A A78U,0
14,C21G G80A,0.0196
15,C21G G80U,0.0963
16,C22G G80C,0.136
17,C21U G39C,0.201
18,C21G G55U,0.0755
19,U23A G25A,0.277
20,C22U C32A,0.117
21,C21A U69G,0.0723
22,C21U C66G,0.277
23,C22G G39A,0.0817
24,C22G G31C,0.0852

row,Variant,self-cleavage
1,U23A U69G,0.911
2,C21U A56U,0.3
3,C21U A56G,0.315
4,C21G G67A,0
5,C22U G54U,0.808
6,C21U U37A,0.157
7,C22U U65C,0.78
8,C22A G52C,0.305
9,C22A G81A,0.205
10,C22A U37G,0.0462
11,C22A U37C,0.0723
12,C22U G67C,0.535
13,C22U G67A,0.522
14,C22U C62U,0.842
15,U23C C26G,1.05
16,U23A C63U,0.96
17,C21G C26A,0
18,C21G C26U,0.0615
19,U23A C36U,0.671
20,C21G A70U,0.111
21,C22G C41A,0.0346
22,C22U C57G,0.914
23,U23A A70U,0.962
24,U23C C85U,0.849

row,Variant,self-cleavage
1,C21U G80U,0.0919
2,C21U G81U,0.0875
3,C21U G81C,0.106
4,C21U G81A,0.0978
5,C21G U47A,0.0773
6,C22G U37A,0.0845
7,C21U G25A,0.0997
8,C21G U60G,0
9,C21U C44A,0.437
10,C22U U60C,0.767
11,C22U U60A,0.623
12,C22U U60G,0.944
13,U23C G29C,0.0475
14,C22U C85G,0.811
15,C21U G54C,0.292
16,U23A G35A,0.864
17,C21A U46G,0.138
18,U23A C75U,0.346
19,C22U C36A,0.0739
20,U23C A45G,0.8
21,U23C A45U,0.675
22,C22G G35U,0.102
23,C22G G35A,0.0615
24,C21G U46A,0.147

row,Variant,self-cleavage
1,C21G C85A,0.0504
2,C21U A42U,0.0845
3,C22A G53U,0.376
4,C22G C86A,0.106
5,C22G C86U,0.0923
6,C21G A51C,0
7,C22U A56G,0.895
8,U23A C24U,0.199
9,U23A C24A,0.623
10,C22G C66A,0.0692
11,C21U G34U,0.0354
12,C22A C36G,0.0354
13,C22A C36A,0.0536
14,C22A C36U,0.149
15,C21G G52A,0.0287
16,C22G A70C,0.0489
17,C21G G35U,0.104
18,C22U A87U,0.644
19,C21G G82U,0.106
20,C21G G82C,0.0437
21,C21G G82A,0.101
22,C21U C41U,0.267
23,C21U C41A,0.339
24,C21U G68U,0.271

row,Variant,self-cleavage
1,C21U G68A,0.252
2,C21U G68C,0.0875
3,U23C G67A,0.927
4,U23A U79G,0.665
5,C21G A56C,0.0386
6,C21U G73A,0.0955
7,C21U A77G,0.232
8,C21A U72G,0.166
9,C22A C85U,0.345
10,C22A C75U,0.128
11,C22U G52A,0.709
12,C22U G73U,0.157
13,C22U G73C,0.256
14,C22U C30A,0.117
15,C22U C30U,0.194
16,C22A C33U,0.191
17,C22A C33A,0.0314
18,C22G G68C,0.0354
19,C21U A83C,0.108
20,U23A A71C,0.712
21,C22A A71C,0.0405
22,C22A A71U,0.326
23,C22A A71G,0.393
24,C21U U65G,0.0852

row,Variant,self-cleavage
1,C21U U65C,0.198
2,C21G C33G,0.101
3,C21G C33U,0
4,C21G C33A,0
5,C22A C62G,0.212
6,C21G G34U,0.0604
7,C22U U72A,0.219
8,C22U U72G,0.17
9,C21G G40U,0.0308
10,C22A C26U,0.578
11,C21G G73U,0.026
12,C21G G73C,0.17
13,U23C C24G,0.0437
14,U23C C24U,0.57
15,U23C G28A,0.0396
16,C21U A78U,0.148
17,C21U A78C,0.058
18,C21U A45G,0.291
19,C21U A45C,0.0256
20,U23C G68C,0.727
21,C22A G73C,0.0482
22,C22A G73A,0.0723
23,U23C G55A,0.814
24,U23A G40U,0.769

row,Variant,self-cleavage
1,C22U C86G,0.692
2,C22U G59C,0.566
3,C22U G31A,0.22
4,C22A U60A,0.326
5,C22G C75G,0.181
6,C22G C75A,0
7,C22A G67U,0.259
8,C21G G76A,0.0386
9,C22A U23A,0.224
10,C22A G55C,0.262
11,U23A C64A,0.814
12,C22G G59C,0.151
13,C22U U46G,0.192
14,C22U C61G,0.545
15,C22A G74A,0.0744
16,C22U C26A,0.997
17,C22A C63A,0.166
18,C22A C63U,0.157
19,C22A C63G,0.369
20,C22U G76U,0.794
21,C22U G76A,0.643
22,C22U G82U,0.23
23,C21G C84U,0.0231
24,C21G C84G,0

row,Variant,self-cleavage
1,C22G C64U,0.0536
2,U23C C41G,0.201
3,U23C A87G,0.855
4,C22G U79G,0.0665
5,C22G U79C,0.105
6,C22G C63U,0.147
7,C21G A83C,0
8,C22U G25A,0
9,C22U G25U,0.0287
10,U23A C30G,0
11,C21U A71U,0.572
12,U23C A51G,0.978
13,U23C A51U,1.15
14,C21U G52U,0.182
15,U23A C66G,0.787
16,C22U G74C,0.157
17,U23A G31A,0.489
18,U23C G34A,0.0898
19,C22G U65C,0.0997
20,C21A U60A,0.0361
21,C21A U60C,0.0739
22,C22U U79C,0.198
23,C22U U79G,0.178
24,U23A C41A,1.07

row,Variant,self-cleavage
1,U23C G31A,0.266
2,U23C G31U,0.151
3,C22U C64A,0.786
4,C21U U47A,0.363
5,C21U U47G,0.185
6,C22U G28A,0.0804
7,C22U G28C,0
8,C21G C44U,0.0898
9,C21G C44A,0
10,C21G C30G,0
11,C21U C24G,0.0545
12,C21U C24A,0.0997
13,C22G A83C,0.0898
14,C21G C62U,0
15,C21G C62A,0.119
16,C22U C84A,0.408
17,C21A U47G,0.0504
18,C21A U47C,0
19,C21U A51G,0.228
20,C21U A51C,0.332
21,C21U A51U,0.308
22,U23A U60C,1.16
23,C22G C26G,0
24,C22G C26U,0.208

row,Variant,self-cleavage
1,C21U C26A,0.383
2,C21U G40C,0.166
3,C22A A42U,0.111
4,C22U G55U,0.732
5,C22G G67A,0.0898
6,U23C C75G,0.148
7,C22G G34A,0.0339
8,C22G G34U,0.0627
9,C22U C48G,0.635
10,C21U C57U,0.18
11,C22G U46G,0.0875
12,C22G U46A,0.0519
13,U23C C36U,0.365
14,C22A U65C,0.446
15,C22A G25C,0
16,C22A A77G,0.38
17,C22G C44A,0.0426
18,C21G U79G,0.0554
19,U23C C61A,0.982
20,U23C G35C,0.115
21,U23C G35A,0.655
22,U23A A56U,1.08
